This note sets out measurements from patent US20220306762A1 (CRYSTAL BIOSCIENCE, published 2022).

Changes are numbered by the printed parent chain.

For assay [1], the target named is T1, Human CD38 on transiently transfected Expi293 cells (Origene SC321273) (human, UniProt P28907 1-300).
T1 construct: whole, on cells
Briefly: flow cytometry, 10 ug/ml scFv-Fc, transfected Expi293 cells. A general note: A flow cytometer gives signals particle by particle.

Assay [2] deals with T2, Murine CD38 on transiently transfected Expi293 cells (Origene MC208001) (murine, UniProt P56528 1-304).
T2 construct: whole, on cells
T2 sequence (looked up): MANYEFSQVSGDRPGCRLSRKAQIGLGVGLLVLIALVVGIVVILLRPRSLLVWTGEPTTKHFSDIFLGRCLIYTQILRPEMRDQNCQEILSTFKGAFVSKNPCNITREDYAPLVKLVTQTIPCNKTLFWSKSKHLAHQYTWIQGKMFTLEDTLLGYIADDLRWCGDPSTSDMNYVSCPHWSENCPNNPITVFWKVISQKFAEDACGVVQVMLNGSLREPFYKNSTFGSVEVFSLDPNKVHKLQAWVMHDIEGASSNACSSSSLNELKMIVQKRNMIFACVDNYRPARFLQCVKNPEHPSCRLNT
The assay is described as above.

Assay [3] has as its target T3, His-tagged mouse CD38 (ACRO Biosystems CD8-M5223) (mouse, UniProt P56528 45-304).
T3 construct: bought protein; used for ELISA coating and as SPR analyte; also called Murine; not shown: His tag
T3 sequence (looked up): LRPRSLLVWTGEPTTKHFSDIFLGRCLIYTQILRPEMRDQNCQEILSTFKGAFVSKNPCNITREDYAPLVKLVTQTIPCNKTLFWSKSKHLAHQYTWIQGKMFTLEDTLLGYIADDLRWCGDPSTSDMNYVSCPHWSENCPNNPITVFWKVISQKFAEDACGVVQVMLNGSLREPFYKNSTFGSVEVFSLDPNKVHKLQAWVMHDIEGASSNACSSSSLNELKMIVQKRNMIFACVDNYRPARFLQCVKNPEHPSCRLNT
Briefly: ELISA, 1 ug/ml scFv-Fc, coated His-tagged CD38. For orientation: An ELISA detects its analyte on a solid surface through an enzyme-linked reagent.

For assay [4], the target named is T4, His-tagged cynomolgus monkey CD38 (ACRO Biosystems, CD8-05223 [sic]) (cynomolgus monkey, UniProt Q5VAN0 43-301).
T4 construct: bought protein; used for ELISA coating and as SPR analyte; not shown: His tag
Briefly: ELISA, 1 ug/ml scFv-Fc, coated His-tagged CD38.

Assay [5] deals with T5, His-tagged human CD38 (ACRO Biosystems CD8-H5224) (human, UniProt P28907 43-300).
T5 construct: bought protein; used for ELISA coating and as SPR analyte; not shown: His tag
Kind of assay: ELISA, 1 ug/ml scFv-Fc, coated His-tagged CD38.

The target in assay [6] is T3, His-tagged mouse CD38 (ACRO Biosystems …). Kind of assay: SPR (second run), His-tagged CD38.
For assay [7], the target named is T4, His-tagged cynomolgus monkey CD38 (ACRO …). Kind of assay: SPR (second run), His-tagged CD38.
For assay [8], the target named is T5, His-tagged human CD38 (ACRO Biosystems …). Briefly: SPR (second run), His-tagged CD38.
The target in assay [9] is T3, His-tagged mouse CD38 (ACRO Biosystems …). Briefly: SPR, IgG. Background: Surface plasmon resonance follows binding to a sensor surface in real time, without labels.
For assay [10], the target named is T5, His-tagged human CD38 (ACRO Biosystems …). Kind of assay: SPR, IgG.
The target in assay [11] is T4, His-tagged cynomolgus monkey CD38 (ACRO …). Briefly: SPR, IgG.

B1: 40769p2.2.A6 scFv-Fc (scFv, V domains shown)
VH: EVQLLESGGGLVQPGGSLRLSCAASGFTFSDYEMNWVRQAPGKGLEWVSAISITGSWTYYADSVKGRFTISRDNSENTLYLQMNNLRAEDTAVYYCANYKSYYGMDVWGRGTTVTVSS
VL: QSVLTQPPSASGTPGQRVTISCSGSRSNIRNNLVNWYQQLPGTAPKLLIYNTQRPSGVPDRFSGSKSGTSASLAISGLQSEDEADYYCASWDASLNAWVFGGGTKLTVL
notes: scFv-Fc
Take B1: the FACS percent gated in assay [1] is 92.2%; in assay [2], 2.43%. Also, the ELISA signal in assay [3] worked out at 0.043; in assay [4], 1.62; in [5], 1.75.

B2: 40769p2.2.C11 scFv-Fc (scFv, V domains shown)
VH: B1 VH with A50S, E76K, R110H
VL: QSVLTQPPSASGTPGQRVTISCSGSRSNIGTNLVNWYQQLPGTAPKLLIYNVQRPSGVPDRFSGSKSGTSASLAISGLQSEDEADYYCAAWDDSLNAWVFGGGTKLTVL
notes: scFv-Fc
Consider B2, for which the FACS percent gated was found to be 92.8% in assay [1] and 1.26% in [2]. Besides, the ELISA signal came out at 0.043 in [3], 1.52 in assay [4] and 1.53 in [5].

B3: 40769p1.2.C9 (scFv, V domains shown)
VH: EVQLLESGGGLVQPGGSLRLSCAASGFTFSSHDMNWVRQAPGKGLEWVSTITTTGGTYYTDSVKGRFTISRDNSKNTIYLQMTSLRAEDTAVYYCTKHYSMDVWGQGTTVTVSS
VL: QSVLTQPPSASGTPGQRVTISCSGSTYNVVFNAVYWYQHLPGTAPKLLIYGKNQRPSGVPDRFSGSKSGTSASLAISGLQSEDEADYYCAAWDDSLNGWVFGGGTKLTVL
B3: the Kd – broadly, the free concentration of one partner at which half of the binding sites on the other are occupied at equilibrium, for simple one-to-one binding – amounted to 0.055 µM in [6], 0.2 µM in assay [7] and 0.0962 µM in [8].

B4: 40769p2.2.A9 scFv-Fc (scFv, V domains shown)
VH: EVQLLESGGGLVQPGGSLRLSCTASGITFSRFNMFWVRQAPGKGLEFVASIRDDGSWTYYADSVKGQFTISRDNSKNTLYLQMNSLRAEDTAVYYCAKDYNSKDFIYHYVMDVWGQGTTVTVSS
VL: QSVLTQPPSASGTPGQRVTISCSGRNSNIGNNVVNWYQQLPGTAPKLLIYRNQERPSGVPDRFSGSKSGTSASLAISGLQSEDEADYYCSTWDDSLNGWVFGGGTKLTVL
notes: scFv-Fc
Turning to B4, the FACS percent gated in [1] came out at 91.2%; in [2] it was 1.57%. Besides, the ELISA signal was determined as 0.044 in [3], 1.67 in assay [4] and 1.55 in [5].

B5: 40769p1.1.B10 (scFv, V domains shown)
VH: B4 VH with Q67R
VL: B4 VL
With B5, the Kd in [6] was 0.501 µM; in assay [7], 6.03 µM; in [8] it was 0.0296 µM.

B6: 40769p1.2.B10 (scFv, V domains shown)
VH: EVQLLESGGGLVQPGGSLRLSCPASGFDFSSYWMTWVRQAPGKGLEWVSTITDSGGRAWYADSVRGRFTISRDNSKNTLYLQMNSLRAEDTAVYYCARDTPKTYYYYAMDVWGQGTTVTV
VL: QSALTQPPSASGTPGQRVTISCSGSSSNIQYSYVSWYQQLPGTAPKLLIYNNVQRPSGVPDRFSGSKSGTSASLAISGLQSEDEADYYCATWDESLLGLWVFGGGTKLTVL
Turning to B6, the Kd turned out to be 1.66 µM in [6], 0.0243 µM in [7] and 0.00249 µM in [8].

B7: 40596p2.1.A2 IgG (antibody, V domains shown)
VH: EVQLLESGGGLVQPGGSLTLSCTASGLTFSSYAMNWVRQAPGKGLEWVATISSNSGSFRSYADSVKGRFTISRDNSKSTLYLQTNSLRAEDTALYYCTKDRSITANDFTMDVWGQGTTVTVSS
VL: EIVLTQSPGTLSVSPGERATLNCRASQTVGSRLAWYQQKPGQAPRLLIYGASSRATGIPARFSGSGSGTEFTLTISSLQSEDFAVYYCQQYYDWPPLTFGGGTKVEIK
notes: IgG
Turning to B7, the Kd worked out at 0.00671 µM in assay [9] and 0.0109 µM in [10].

B8: 40769p2.2.A5 scFv-Fc (scFv, V domains shown)
VH: EVQLLESGGGLIQPGGSLRLSCTASGFDFSSYGMHWVRQAPGKGLEWVGIISDTGGTTYYGDSVKGRFTISRDNSKSTLYLQMNSLRAEDTALYYCASYIMDVWGQGTTVTVSS
VL: QSVLTQPPSASGTPGQRVTISCSGSNSNVGDNAVYWYQQLPGTAPKLLFYGTNRRPSGVPDRFSGSKSGTSASLAISGLQSEDEADYYCAAWDDSLNAWVFGGGTKLTVL
notes: scFv-Fc
As for B8, the FACS percent gated in assay [1] turned out to be 90.5%; in assay [2], 35.5%. For the same molecule, the ELISA signal came out at 1.27 in [3], 1.6 in [4] and 1.76 in assay [5].

B9: 40769p2.1.H12 IgG (antibody, V domains shown)
VH: B8 VH with T54S, G61A, S77N, T108I
VL: B8 VL with D31V, A33S, F49I, T52S, N53G, G65V, S95G
notes: IgG
Consider B9, for which the Kd in [9] came to 21.4 µM; in assay [11], 0.316 µM; in assay [10], 0.16 µM.

B10: 40769p2.2.E12 scFv-Fc (scFv, V domains shown)
VH: B8 VH
VL: B8 VL with L40P
notes: scFv-Fc
Take B10: the FACS percent gated in assay [1] is 91.6%; in assay [2] it was 35.9%. In addition, the ELISA signal in assay [3] was 1.26; in assay [4], 1.59; in assay [5], 1.67.

B11: 40769p1.1.B12 (scFv, V domains shown)
VH: B8 VH with T54S, G61A, S77N, L79M, T108I
VL: B8 VL with N26S, D31G, A33S, T52N, N53H, A91V
As to B11, the equilibrium dissociation constant (Kd) in [6] was 0.249 µM; in assay [7] it was 0.582 µM; in [8], 0.091 µM.

B12: 40769p2.2.D3 scFv-Fc (scFv, V domains shown)
VH: B8 VH with T54S, G61A, S77N, T108I
VL: B8 VL with D31V, A33S, F49I, T52S, N53G, G65V, D94G, S95G
notes: scFv-Fc
On to B12, for which the FACS percent gated in assay [1] is 83.5%; in assay [2], 13.1%. Also, the figures for the ELISA signal in [4] and in assay [5] were 1.34 and 1.48, respectively.

B13: 40769p2.1.E1 IgG (antibody, V domains shown)
VH: B8 VH with G49A, T54S
VL: B8 VL with G15E
notes: IgG
As to B13, the dissociation constant Kd worked out at 1.17 µM in assay [9], 0.261 µM in assay [11] and 0.0255 µM in [10].

B14: 40769p2.2.D9 scFv-Fc (scFv, V domains shown)
VH: EVQLLESGGGLVQPGGSLRLSCAGSGFTFSDYWMSWVRQAPGKGLEWVSTISITAGIIYYADSVKGRFTISRDNSKNTLYLQMNSLRAEDTAVYYCAKDNWNDYYGMDVWGQGTTVTVSS
VL: QSVLTQPPSASGTPGQRVTVSCSGSRSNIRDNYVYWYQQVPGTAPKLLIYKDDQRPSGVPDRFSGSKSGTSASLVISGLQSEDEADYYCATWDGSLNARVFGGGTKLTVL
notes: scFv-Fc
As to B14, the FACS percent gated in [1] amounted to 92.6%; in assay [2], 2.87%. Besides, the ELISA signal in [3] was 0.043; in [4], 1.47; in assay [5] it was 1.51.
